# Measurements: paper PMC6572100, “Structure of the Prx6-subfamily 1-Cys peroxiredoxin from Sulfolobus islandicus” (Acta Crystallographica. Section F, Structural Biology …, 2019)
# B1: Sulfolobus islandicus 1-Cys peroxiredoxin (1-Cys SiPrx) (enzyme, Sulfolobus islandicus REY15a)
# chain: MVSEGRIPLIGEKFPEMEVITTHGKIKLPDDYKGRWFVLFSHPGDFTPVCTTEFYSFSKKYEEFKKLNTELIGLSVDSNISHIEWVMWIEKNLKVEVPFPIIADPMGNVAKRLGMIHAESSTATVRAVFIIDDKGTVRLILYYPMEIGRNIDEILRAIRALQLVDKAGVVTPANWPNNELIGDKVINPAPRTIKDAKMRLGQPFDWWFTYKEVKTT
# notes: The residue numbers printed in the text (Cys49, His41, Lys24) are one lower than the positions in the printed construct (C50, H42, K25); surmise: the V at position 2 comes from the NcoI cloning site; Decamer (five homodimers) in the crystal and in solution; also called S. islandicus Bcp2; SiRe_0346; source: E. coli Rosetta, purified (HisTrap FF, dialysis); not shown: His6, C-terminal, kept; …
# Key:
# [1] = biological target: the molecule itself; assay: SEC; Superdex 200, about 2 mg protein, 50 mM Na2HPO4 pH 7.4, 150 mM NaCl; untreated protein; molecular-weight standard curve
# [2] = biological target: the molecule itself; assay: crystal structure; hanging-drop vapor diffusion, 7.5 mg/ml protein in 10 mM Tris-HCl pH 7.5; reservoir 10 mM Tris-HCl pH 7.5, 15% PEG 1500, 0.1 M MgCl2, 283 K; 2.75 Å, space group P212121, ten monomers in the asymmetric unit
protein,measurement,setting,value
B1,stoichiometry N,[1],~20 subunits
same,stoichiometry N,[2],10 subunits
